Paper PMC10842012

Columns and labels:
[1] = target: HRP29 decoration protein gp48 (Shigella phage HRP29); test: cryo-EM structure
[2] = target: HRP29 tailspike adapter protein gp44 (in the virion) (Shigella phage HRP29); test: cryo-EM structure
[3] = target: HRP29 tailspike protein gp52 (Shigella phage HRP29); test: negative-stain electron microscopy with 2D classes and 3D reconstruction
[4] = target: HRP29 portal protein gp35 (Shigella phage HRP29); test: cryo-EM structure

Substance: HRP29 decoration protein gp48 (natural protein)
- stoichiometry N [1]: 2

Substance: HRP29 tailspike adapter protein gp44 (in the virion) (natural protein)
- stoichiometry N [2]: 3

Substance: HRP29 tailspike protein gp52 (natural protein)
- stoichiometry N [3]: 3

Substance: HRP29 portal protein gp35 (natural protein)
- stoichiometry N [4]: 12
